Data set [1] has as its system RENCA renal carcinoma cells. Put plainly: RENCA syngeneic tumor model, mIgG2a versus mIgG1 Fc conjugates. In kind it is in vivo, mouse. As to conditions: BALB/c mice, 10 mg/kg i.p., 3 doses every 3 days, compared to conjugate with the mIgG1 Fc domain. From the text:
Experiments using anti-SIRP-α antibody-CpG oligonucleotide conjugate used the mouse CpG oligo 4523 (SEQ ID NO: 121) conjugated to anti-SIRP-α antibody comprising a heavy chain comprising the sequence of […] (SEQ ID NO:90) for mIgG2a or […] (SEQ ID NO:91) for mIgG1 and a light chain comprising the sequence of […] (SEQ ID NO:111). The sequence of the 4523 murine CpG oligonucleotide is tucgtcgtgacgtt-c3, where lower case indicates phosphothioate linkages, bold indicates iodo-uridine, and underlining indicates phosphotriester linker (SEQ ID NO:121). RENCA renal carcinoma cells (ATCC) were cultured in Complete RPMI 1640 (RPMI 1640+10% FBS (Gibco)) at 37° C. and 5% CO2. Cells were detached with Trypsin 0.25% (Gibco) and washed twice with RPMI 1640 (Gibco). Cells were resuspended at 20E6/mL in RPMI 1640 and kept on ice until use. 100 uL of suspended cells were subcutaneously implanted into the right flank of 6-week-old female BALB/c mice (Charles River). Tumor size was measured and recorded twice a week with calipers starting 9 days post implantation until duration of the study, approximately 35 days later. Tumor volume was calculated using the following formula: (length×width×width)/2. Once tumors reached on average 75 mm^3, […], mice were randomized by tumor size and treatments were initiated. […]

In data set [2] the test system is MC38 overexpressing mouse SIRPα and parental MC38 colon carcinoma cells. Put plainly: Mouse syngeneic MC38 model with SIRP-α-positive and SIRP-α-negative tumor cells. In kind it is in vivo. The conditions noted are these: 1 mg/kg i.p. twice, three days apart; MC38 overexpressing SIRP-α compared with parental MC38. As to the method: Parental MC38 colon carcinoma cells (ATCC) and MC38 overexpressing mouse SIRPα were cultured in Complete Dulbecco's Modified Eagle's Medium (Gibco) (DMEM, 10% FBS, 1% Pen/Strep, 1% Glutmax, 1% sodium pyruvate) at 37° C. and 5% CO2. Cells were detached with Trypsin 0.25% (Gibco) and washed twice with DMEM. Cells were resuspended at 20E6/mL in DMEM and kept on ice until use. 100 μL of suspended cells were subcutaneously implanted into the right flank of 6-week-old female C57/BL6 mice (Charles River). Tumor size was measured and recorded twice a week with calipers starting 4 days post implantation until duration of the study, approximately 17 days later. Tumor volume was calculated using the following formula: (length×width×width)/2. Once MC38 parental and MC38 SIRP-α tumors reached on average 94 mm^3 to 88 mm^3, respectively, approximately 4 days post implantation, mice were randomized by tumor size and treatments were initiated. The anti-SIRP-α mIgG1 conjugated to mTCpG (heavy chain comprising the sequence of SEQ ID NO:91 and light chain comprising the sequence of SEQ ID NO: 111, conjugated to mouse CpG oligo 4523 (SEQ ID NO: 121)) was administered intraperitoneally 2 doses every 3 days at 1 mg/kg.

For data set [3], the system named is RENCA renal carcinoma cells. Put plainly: RENCA mouse syngeneic tumor model refractory to PD-1. It counts as in vivo. The conditions noted are these: 10 mg/kg i.p. three times, three days apart, single agent. How it is done:
RENCA renal carcinoma cells line (ATCC) was cultured in Complete RPMI (RPMI, 10% FBS, 1× Pen/Strep, 1× Glutamax) at 37° C. and 5% CO2. Cells were detached with Trypsin 0.25% (Gibco) and washed twice with RPMI 1640 (Gibco). Cells were resuspended at 20E6/mL in RPMI 1640 and kept on ice until use. 100 μL of suspended cells were subcutaneously implanted into the right flank of 6-week-old female BALB/c mice (Charles River). Tumor size was measured and recorded twice a week with calipers starting 9 days post implantation until duration of the study, approximately 27 days later. Tumor volume was calculated using the following formula: (length×width×width)/2. Once tumors reached on average 56 mm^3, approximately 9 days post implantation, mice were randomized by tumor size and treatments were initiated. Anti-mSIRP-α conjugated to mT-CpG (heavy chain comprising the sequence of SEQ ID NO:91 and light chain comprising the sequence of SEQ ID NO:111, conjugated to mouse CpG oligo 4523 (SEQ ID NO:121)) was administered intraperitoneally 3 doses every 3 days at 10 mg/kg. In the anti-PD-1 RMP1-14 (BioXcell) treated cohort, dosing was initiated on day 10 post-tumor implantation once tumors reached on average 52 mm. A total of 3 doses 3 days apart at 10 mg/kg were administrated.

In data set [4] the test system is CT26 mouse colon carcinoma cells. Put plainly: CT26 mouse syngeneic tumor model, alone and in combination with anti-PD-1. In kind it is in vivo. How it is done:
CT26 mouse colon carcinoma cells (ATCC) were cultured in Complete RPMI (RPMI, 10% FBS, 1× Pen/Strep, 1× Glutamax) at 37° C. and 5% CO2. Once cells were 80% confluent, cells were detached with Trypsin 0.25% (Gibco) and washed twice with RPMI 1640 (Gibco). Cells were resuspended at 20E6/mL in RPMI 1640 and kept on ice until use. 100 μL of suspended cells were subcutaneously implanted into the right flank of 6 week old female BALB/c mice (Charles River). Tumor size was measured and recorded twice a week with calipers starting 7 days post implantation until duration of the study, approximately 27 days later. Tumor volume was estimated using the following formula: (length×width×width)/2. Once tumors reached 110 mm^3, approximately 9 days post implantation, mice were randomized by tumor size and treatments were initiated. Anti-mSIRP-α antibody-CpG oligonucleotide conjugate with a heavy chain comprising the sequence of SEQ ID NO:91 and a light chain comprising the sequence of SEQ ID NO: 111, conjugated to mouse CpG oligo 4523 (SEQ ID NO:121), […], 4 days apart, anti-PD-1 […] (BioXcell) at 10 mg/kg twice, 4 days apart as a single agent or in combination with anti-mSIRP-α antibody-CpG oligonucleotide conjugate for a total of two doses 4 days apart and anti-PD-1 twice, two days post anti-mSIRP-α antibody-CpG oligonucleotide conjugate.

The subject of data set [5] is B16-F10 melanoma cell line. Put plainly: B16F10 mouse syngeneic tumor model, combination with anti-PD-L1. It counts as in vivo. The conditions noted are these: 30 mg/kg i.p. in combination with anti-PD-L1 antibody 10 mg/kg, compared to either alone. How it is done: B16-F10 melanoma cell line (ATCC) was cultured in Complete Dulbecco's Modified Eagle's Medium (DMEM, 10% FBS, 1% Pen/Strep, 1% Glutamax, 1% Sodium Pyruvate) at 37° C. and 5% CO2. Cells were detached with Trypsin 0.25% (Gibco) and washed twice with DMEM (Gibco). Cells were resuspended at 6E6/mL in DMEM and kept on ice until use. 100 μL of suspended cells were subcutaneously implanted into the right flank of 6-week-old female C57BL/6 mice (Charles River). Tumor size was measured and recorded 2-3 times a week with calipers starting 7 days post-implantation until duration of the study, approximately 17 days later. Tumor volume was calculated using the following formula: (length×width×width)/2. Once tumors reached on average 55 mm^3, approximately 7 days post-implantation, mice were randomized by tumor size and treatments were initiated. The conjugates were administered intraperitoneally 2 doses every 3 days at 30 mg/kg. Anti-PD-L1 was administered intraperitoneally 2 doses every 3 days at 10 mg/kg. […] The anti-mSIRP-α antibody conjugate comprised murine reactive mT-CpG oligonucleotide (SEQ ID NO: 121) conjugated to an anti-SIRP-α antibody comprising a heavy chain comprising the sequence of SEQ ID NO:91 and a light chain comprising the sequence of SEQ ID NO:111. […]

Two molecules from US20240374746A1, “SIRP-ALPHA ANTIBODIES AND CONJUGATES” (Tallac Therapeutics, Inc., priority 2021, published 2024) can be followed below.

B1: conjugate with the mIgG2a Fc: anti-SIRP-α antibody, heavy chain SEQ ID NO:90 and light chain SEQ ID NO:111, conjugated to mouse CpG oligo 4523 (SEQ ID NO:121) (conjugate)
heavy: DVQLVESGGGVVRPGESLRLSCAASGFTFSSNAMSWVRQAPGKGLEWLAGISAGGSDTYYPASVKGRFTISRDNSKNTLYLQMNTLTAEDTAVYYCARETWNHLFDYWGLGTLVTVSSAKTTAPSVYPLAPVCGDTTGSSVTLGCLVKGYFPEPVTLTWNSGSLSSGVHTFPAVLQSDLYTLSSSVTVTSSTWPSQSITCNVAHPASSTKVDKKIEPRGPTIKPCPPCKCPAPNLLGGPSVFIFPPKIKDVLMISLSPIVTCVVVDVSEDDPDVQISWFVNNVEVHTAQTQTHREDYNSTLRVVSALPIQHQDWMSGKEFKCKVNNKDLPAPIERTISKPKGSVRAPQVYVLPPPEEEMTKKQVTLTCMVTDFMPEDIYVEWTNNGKTELNYKNTEPVLDSDGSYFMYSKLRVEKKNWVERNSYSCSVVHEGLHNHHTTKSFSRTPGRPQGFGPP
light: ALTQPASVSANPGETVKIACSGGDYYSYYYGWYQQKAPGSALVTVIYSDDKRPSDIPSRFSGSASGSTATLTITGVRAEDEAVYYCGGYDYSTYANAFGAGTTLTVLGQPKSSPSVTLFPPSSEELETNKATLVCTITDFYPGVVTVDWKVDGTPVTQGMETTQPSKQSNNKYMASSYLTLTARAWERHSSYSCQVTHEGHTVEKSLSRADCS
DNA: ttcgtcgtgacgtt
modifications: antibody conjugated to CpG oligonucleotide; modified_base 2 OTHER; iodo-uridine; modified_base 1..5 OTHER; phosphorothioate linkages; misc_feature 5^6 phosphotriester linker; modified_base 6..14 OTHER; misc_feature 14 3' spacer C3
Regarding B1, the anti-tumor inhibition result in data set [1] is given as “reduced anti-tumor inhibition”.

B2: anti-mSIRP-α antibody conjugated with murine reactive mT-CpG: anti-SIRP-α mIgG1, heavy chain SEQ ID NO:91 and light chain SEQ ID NO:111, conjugated to mouse CpG oligo 4523 (SEQ ID NO:121) (conjugate)
heavy: DVQLVESGGGVVRPGESLRLSCAASGFTFSSNAMSWVRQAPGKGLEWLAGISAGGSDTYYPASVKGRFTISRDNSKNTLYLQMNTLTAEDTAVYYCARETWNHLFDYWGLGTLVTVSSAKTTPPSVYPLAPGSAAQTNSMVTLGCLVKGYFPEPVTVTWNSGSLSSGVHTFPAVLQSDLYTLSSSVTVPSSTWPSETVTCNVAHPASSTKVDKKIVPRDCGCKPCICTVPEVSSVFIFPPKPKDVLTITLTPKVTCVVVDISKDDPEVQFSWFVDDVEVHTAQTQPREEQFNSTFRSVSELPIMHQDWLNGKEFKCRVNSAAFPAPIEKTISKTKGRPKAPQVYTIPPPKEQMAKDKVSLTCMITDFFPEDITVEWQWNGQPAENYKNTQPIMDTDGSYFIYSKLNVQKSNWEAGNTFTCSVLHEGLHNHHTEKSLSHSPGRPQGFGPP
light: ALTQPASVSANPGETVKIACSGGDYYSYYYGWYQQKAPGSALVTVIYSDDKRPSDIPSRFSGSASGSTATLTITGVRAEDEAVYYCGGYDYSTYANAFGAGTTLTVLGQPKSSPSVTLFPPSSEELETNKATLVCTITDFYPGVVTVDWKVDGTPVTQGMETTQPSKQSNNKYMASSYLTLTARAWERHSSYSCQVTHEGHTVEKSLSRADCS
DNA: ttcgtcgtgacgtt
modifications: antibody conjugated to CpG oligonucleotide; modified_base 2 OTHER; iodo-uridine; modified_base 1..5 OTHER; phosphorothioate linkages; misc_feature 5^6 phosphotriester linker; modified_base 6..14 OTHER; misc_feature 14 3' spacer C3
Regarding B2, the anti-tumor activity result in data set [2] is given as “superior anti-tumor activity”. Further, the anti-tumor response result in data set [3] is recorded as “potent, single-agent anti-tumor response”; in data set [4] (suboptimal dose 0.3 mg/kg in combination with anti-PD-1 antibody 10 mg/kg, compared to either alone), “enhanced anti-tumor response”; in data set [5] it was “enhanced anti-tumor response”. For the same molecule, the tumor growth inhibition result in data set [4] (1 mg/kg i.p., single agent) is “robust tumor growth inhibtion”.
